This note sets out measurements from patent US20250011363A1, “OPTIMIZED SHORTENED PEPTIDE THAT BINDS TO ACETYLCHOLINE RECEPTOR, AND USE THEREOF” (SKINMED CO., LTD., priority 2021, published 2025).

The target of the assay is acetylcholine receptor. The experiment in a line: SPR, AchR immobilised on CM5 chip, peptide 10 uM. (In general: SPR reads the build-up and loss of mass on a sensor chip optically.)

B1: 6mer-1-1041 (peptide)
peptide: RKEHGK
In turn, B1 yielded a Binding affinity (RU) of 23 RU.

B2: 6mer-1-1019 (peptide)
peptide: KRDAWR
For B2, the Binding affinity (RU) is 37 RU.

B3: 6mer-1-1021 (peptide)
peptide: KKHDIK
Regarding B3, the Binding affinity (RU) turned out to be 41 RU.

B4: 6mer-1-1005 (peptide)
peptide: RKPPDR
Take B4: the Binding affinity (RU) turned out to be 26 RU.

B5: 6mer-1-1011 (peptide)
peptide: RKKPEK
B5 gave a Binding affinity (RU) of 35 RU.

B6: 6mer-1-1047 (peptide)
peptide: RKATDK
B6 displayed a Binding affinity (RU) of 30 RU.

B7: 6mer-1-1028 (peptide)
peptide: RRHCWR
Regarding B7, the Binding affinity (RU) came out at 36 RU.

B8: 6mer-1-991 (peptide)
peptide: RKAHDK
Take B8: the Binding affinity (RU) is 25 RU.

B9: 6mer-1-1051 (peptide)
peptide: KKKSFK
B9 showed a Binding affinity (RU) of 43 RU.

B10: 6mer-1-1015 (peptide)
peptide: KREEWR
As to B10, the Binding affinity (RU) turned out to be 26 RU.

B11: 6mer-1-1020 (peptide)
peptide: KKMEAK
The molecule B11 showed a Binding affinity (RU) of 38 RU.

B12: 6mer-1-1000 (peptide)
peptide: RKMSHR
For B12, the Binding affinity (RU) came to 28 RU.

B13: 6mer-1-1018 (peptide)
peptide: KKTAFK
For B13, the Binding affinity (RU) is 28 RU.

B14: 6mer-1-1029 (peptide)
peptide: RRCMAK
The molecule B14 showed a Binding affinity (RU) of 40 RU.

B15: 6mer-1-1031 (peptide)
peptide: RKDTHK
Take B15: the Binding affinity (RU) stood at 38 RU.

B16: 6mer-1-1007 (peptide)
peptide: RKPTDR
B16 displayed a Binding affinity (RU) of 39 RU.

B17: 6mer-1-1037 (peptide)
peptide: RRKNNR
Regarding B17, the Binding affinity (RU) amounted to 36 RU.

B18: 6mer-1-1049 (peptide)
peptide: KKDHKK
For the molecule B18, the Binding affinity (RU) worked out at 31 RU.

B19: 6mer-1-1046 (peptide)
peptide: RKDPHR
On to B19, for which the Binding affinity (RU) was found to be 38 RU.

B20: 6mer-1-998 (peptide)
peptide: KRNPVK
Take B20: the Binding affinity (RU) is 41 RU.

B21: 6mer-1-1050 (peptide)
peptide: KKMEDR
For B21, the Binding affinity (RU) is 38 RU.

B22: 6mer-1-1002 (peptide)
peptide: KRIHMK
Regarding B22, the Binding affinity (RU) was determined as 29 RU.

B23: 6mer-1-1003 (peptide)
peptide: RKYCHR
B23 returned a Binding affinity (RU) of 24 RU.

B24: 6mer-1-1026 (peptide)
peptide: RKKCER
With B24, the Binding affinity (RU) was found to be 30 RU.

B25: 6mer-1-1012 (peptide)
peptide: RRAWVR
B25 had a Binding affinity (RU) of 35 RU.

B26: 6mer-1-1061 (peptide)
peptide: RRISIR
For B26, the Binding affinity (RU) amounted to 41 RU.

B27: 6mer-1-1024 (peptide)
peptide: RKTEIR
The molecule B27 had a Binding affinity (RU) of 36 RU.

B28: 6mer-1-1038 (peptide)
peptide: RRKKIR
For B28, the Binding affinity (RU) stood at 21 RU.

B29: 6mer-1-1056 (peptide)
peptide: RRNTAK
In the case of B29, the Binding affinity (RU) worked out at 27 RU.

B30: 6mer-1-1008 (peptide)
peptide: RKPWAR
Take B30: the Binding affinity (RU) worked out at 21 RU.

B31: 6mer-1-1006 (peptide)
peptide: KKDKIK
Take B31: the Binding affinity (RU) amounted to 25 RU.

B32: 6mer-1-1009 (peptide)
peptide: RKMSKK
Molecule B32 yielded a Binding affinity (RU) of 29 RU.

B33: 6mer-1-1054 (peptide)
peptide: RRMKVK
B33 displayed a Binding affinity (RU) of 37 RU.

B34: 6mer-1-1053 (peptide)
peptide: RKYTPK
The molecule B34 had a Binding affinity (RU) of 27 RU.

B35: 6mer-1-1036 (peptide)
peptide: KKITFR
Molecule B35 showed a Binding affinity (RU) of 21 RU.

B36: 6mer-1-999 (peptide)
peptide: RKATNR
The molecule B36 showed a Binding affinity (RU) of 24 RU.

B37: 6mer-1-997 (peptide)
peptide: KKPTFR
B37 returned a Binding affinity (RU) of 35 RU.

B38: 6mer-1-1035 (peptide)
peptide: RRCHHR
B38 returned a Binding affinity (RU) of 34 RU.

B39: 6mer-1-1016 (peptide)
peptide: KRHTHR
B39 returned a Binding affinity (RU) of 21 RU.

B40: 6mer-1-993 (peptide)
peptide: KRAHDK
Consider B40, for which the Binding affinity (RU) was 26 RU.

B41: 6mer-1-1055 (peptide)
peptide: KRCNDK
In turn, B41 showed a Binding affinity (RU) of 40 RU.

B42: 6mer-1-1039 (peptide)
peptide: KRADIK
The molecule B42 displayed a Binding affinity (RU) of 40 RU.

B43: 6mer-1-1004 (peptide)
peptide: RKHSHR
In turn, B43 showed a Binding affinity (RU) of 41 RU.

B44: 6mer-1-1040 (peptide)
peptide: KRIEFR
Molecule B44 registered a Binding affinity (RU) of 28 RU.

B45: 6mer-1-1030 (peptide)
peptide: KKFCFR
In turn, B45 showed a Binding affinity (RU) of 30 RU.

B46: 6mer-1-1058 (peptide)
peptide: KRFPWR
Consider B46, for which the Binding affinity (RU) is 21 RU.

B47: 6mer-1-990 (peptide)
peptide: RRFTER
Molecule B47 had a Binding affinity (RU) of 40 RU.

B48: 6mer-1-1025 (peptide)
peptide: KRFAKR
As for B48, the Binding affinity (RU) was 33 RU.

B49: 6mer-1-1033 (peptide)
peptide: KRHMVK
With B49, the Binding affinity (RU) was found to be 30 RU.

B50: 6mer-1-1032 (peptide)
peptide: KKTSMR
For B50, the Binding affinity (RU) was determined as 27 RU.

B51: 6mer-1-1043 (peptide)
peptide: KRAAHR
B51 returned a Binding affinity (RU) of 30 RU.

B52: 6mer-1-1034 (peptide)
peptide: KKASDR
Molecule B52 came in with a Binding affinity (RU) of 24 RU.

B53: 6mer-1-1027 (peptide)
peptide: KKPWHK
B53 showed a Binding affinity (RU) of 22 RU.

B54: 6mer-1-996 (peptide)
peptide: RRPPWK
As to B54, the Binding affinity (RU) worked out at 39 RU.

B55: 6mer-1-1014 (peptide)
peptide: KKNAWR
B55 returned a Binding affinity (RU) of 25 RU.

B56: 6mer-1-1052 (peptide)
peptide: KRHWIR
B56 returned a Binding affinity (RU) of 33 RU.

B57: 6mer-1-1048 (peptide)
peptide: RRCMMK
Molecule B57 registered a Binding affinity (RU) of 36 RU.

B58: 6mer-1-994 (peptide)
peptide: KKHEFR
B58 showed a Binding affinity (RU) of 37 RU.

B59: 6mer-1-1060 (peptide)
peptide: KRYNVR
In turn, B59 showed a Binding affinity (RU) of 21 RU.

B60: 6mer-1-1010 (peptide)
peptide: KKPKHK
The molecule B60 had a Binding affinity (RU) of 33 RU.

B61: 6mer-1-1022 (peptide)
peptide: RKDTVR
B61 registered a Binding affinity (RU) of 22 RU.

B62: 6mer-1-1057 (peptide)
peptide: KRKPVR
In turn, B62 registered a Binding affinity (RU) of 43 RU.

B63: 6mer-1-1023 (peptide)
peptide: KRIMHK
In turn, B63 had a Binding affinity (RU) of 39 RU.

B64: 6mer-1-1017 (peptide)
peptide: KRANMK
Take B64: the Binding affinity (RU) was determined as 37 RU.

B65: 6mer-1-1042 (peptide)
peptide: KKITAR
As for B65, the Binding affinity (RU) was found to be 40 RU.

B66: 6mer-1-1059 (peptide)
peptide: RRETVK
Consider B66, for which the Binding affinity (RU) was determined as 39 RU.

B67: 6mer-1-1044 (peptide)
peptide: KKHHIR
The molecule B67 registered a Binding affinity (RU) of 24 RU.

B68: 6mer-1-1013 (peptide)
peptide: KKTTNK
B68: the Binding affinity (RU) stood at 29 RU.

B69: 6mer-1-992 (peptide)
peptide: RRCTAK
In the case of B69, the Binding affinity (RU) was found to be 28 RU.

B70: 6mer-1-995 (peptide)
peptide: KRCHHR
As to B70, the Binding affinity (RU) amounted to 33 RU.

B71: 6mer-1-1045 (peptide)
peptide: KKTPGR
B71: the Binding affinity (RU) was 27 RU.
